Laboratory results: patent US20060241289A1 (RSR, published 2006)

Legend:
[1] = molecular target: TSH receptor coated onto plastic tubes or ELISA plate wells (RSR Ltd) / detergent solubilised TSH receptor; experiment: Scatchard analysis, TSH receptors coated onto plastic tubes
[2] = molecular target: T1, TSH receptor coated onto plastic tubes or ELISA plate wells (RSR Ltd) / detergent solubilised TSH receptor; experiment: Scatchard analysis, 125I-IgG on TSH receptor coated tubes
T1 construct: also called TSHR coated tubes; TSH receptor coated tubes
Experimental: Unlabelled IgG or Fab in 50 μL of assay buffer and 50 μL of ¹²⁵I-labelled hMAb IgG or Fab (30,000 cpm in assay buffer) were incubated for 2 hours at room temperature with gentle shaking, washed twice with 1 mL of assay buffer and counted in a gamma counter.

Row | Binder | Ka [1] [M⁻¹] | Ka [2] [M⁻¹]
1 | 9D33 (antibody, V domains shown, Mouse monoclonal IgG; also called 9D33 IgG; mouse monoclonal antibody to the TSHR (9D33)) VH: DVQIQQPGTELVKPGASVRLSCKASGYTFTTYWMHWVKQRPGQGLEWIGEIDPSDSYTNYNQKFKGKATLTVDKSSSTAYMHLSSLTSEDSAVYYCSRNYGSGYYFDYWGQGTTLTVSS VL: GVEMTQSPAIMSASPGEKVTMTCSASSSVSYMHWYQQKSGTSPKRWIYDTSKLASGVPARFSGSGSGTSYSLTISSMETEDAATYYCQQWSSNPWTFGGGTKLEIK | 2e+10 | 
2 | hMAb TSHR1 IgG (antibody, V domains shown, also called human monoclonal TSH receptor autoantibody; TSMAb TSHR1 IgG) VH: QVQLVQSGAEVKKPGESLKISCRGSGYRFTSYWINWVRQLPGKGLEWMGRIDPTDSYTNYSPSFKGHVTVSADKSINTAYLQWSSLKASDTGMYYCARLEPGYSSTWSVNWGQGTLVTVSS VL: LTVLTQPPSVSGAPRQRVTISCSGNSSNIGNNAVNWYQQLPGKAPKLLIYYDDQLPSGVSDRFSGSRSGTSASLAIRGLQSEDEADYYCTSWDDSLDSQLFGGGTRLTVLG |  | 5e+10
